Assays:
[1] = biological target: T1, PD-L1 on the surface of CHO-PD-L1 cells (UniProt Q9NZQ7 19-290, limits assumed); test: flow cytometry (FACS) on CHO-PD-L1 cells, anti-human IgG PE detection
T1 construct: whole, on cells; also called CHO cell line stably transfected with PD-L1; PD-L1 target on the cell surface

[2] = biological target: T2, Human PD-L1 recombinant protein (Sino Biological, Cat.10084-H05H) (human, UniProt Q9NZQ7 19-239); test: competitive ELISA: human PD-L1 coated, antibody titrated against human PD-1-His (competitor), anti-His-HRP detection
T2 construct: also called human PD-L1 protein; PD-L1 protein
T2 sequence (Q9NZQ7 19-239 limits assumed): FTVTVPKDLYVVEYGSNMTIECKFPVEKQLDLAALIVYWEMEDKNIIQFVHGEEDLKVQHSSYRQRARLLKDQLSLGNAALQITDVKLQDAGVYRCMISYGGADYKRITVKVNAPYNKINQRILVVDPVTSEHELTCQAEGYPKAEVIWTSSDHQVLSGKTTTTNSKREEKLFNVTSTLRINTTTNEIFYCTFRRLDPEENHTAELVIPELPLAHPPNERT
Protocol: Human PD-L1 recombinant protein (Sino Biological, Cat.10084-H05H) was diluted with carbonate buffer and added to 96-well ELISA plate at a final concentration of 1 μg/ml. […] The competitive binding curve of the tested antibody could be drawn by matching the antibody concentration to the OD value, and the IC50 value could be calculated.

[3] = biological target: T1, PD-L1 on the surface of CHO-PD-L1 cells; test: cell-based or functional assay
[4] = biological target: T3, recombinant human PD-L1-His protein (Novoprotein, Cat. 315) (human, UniProt Q9NZQ7 19-239); test: SPR (Biacore T200), antibody captured on the chip, PD-L1-His injected, 1:1 model, 25 C
T3 construct: Bought reagent; also called human PD-L1 recombinant protein; not shown: His tag
T3 sequence (Q9NZQ7 19-239 limits assumed): as above

[5] = biological target: T4, cynomolgus monkey PD-L1-His protein (Sino Biological, Cat. 90251-C08H) (cynomolgus monkey, UniProt G7PSE7 19-239); test: as above
T4 construct: Bought reagent; also called cynomolgus PD-L1 recombinant protein; not shown: His tag
T4 sequence (G7PSE7 entry or part of it C08H C08H): as the sequence (Q9NZQ7 19-239 limits assumed) above, with A33T, A34S, S62N, R68Q, Q82R, F173L, T185A, T192I, H215L counted along it

T1 sequence (Q9NZQ7 19-290 limits assumed): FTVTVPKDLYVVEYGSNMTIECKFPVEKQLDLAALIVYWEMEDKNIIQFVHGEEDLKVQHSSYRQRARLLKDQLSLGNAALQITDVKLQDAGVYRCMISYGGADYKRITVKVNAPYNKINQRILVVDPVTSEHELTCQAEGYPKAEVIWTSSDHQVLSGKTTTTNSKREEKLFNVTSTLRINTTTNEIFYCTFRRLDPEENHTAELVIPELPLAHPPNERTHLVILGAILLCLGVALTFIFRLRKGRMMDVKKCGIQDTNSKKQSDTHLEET

B1: 794-h1-71 (antibody, human IgG1, kappa, V domains shown)
VH: QVQLQQSGPGLVKPSQTLSLTCAVSGDSITSGYWNWIRKFPSRGLEYMGYISYSGSTYYNPFLKSRISINRDTSKNQYYLQLNSVTPEDTAVYYCAKMGDWLAWFAYWGQGTLVTVSS
VL: EIVMTQSPPTLSLSPGERVTLSCKSSQSLLYSSNQKNSLAWYQQKPGQAPRLLIYWASTRESGIPARFSGSGSGTDFTLTISSLQPEDFAVYYCQQYYGYPYTFGQGTKLEIKR
notes: also called humanized PD-L1 antibody
[1]
  EC50: 0.0384 µg/mL
[2]
  IC50: 0.849 nM
[3]
  EC50 of NFAT-controlled luminescent reporter signal (RLU), Jurkat-PD-1 cells co-incubated with CHO-PD-L1 cells: 0.166 µg/mL
[4]
  Kd: 1.79 nM
[5]
  Kd: 0.937 nM
